Patent publication US20250270315A1 (ELPISCIENCE SUZHOU BIOPHARMA, published 2025)
Read-outs that look alike come from different tables or passages of the source.

What was measured:
[1] = molecular target: T1, full length human SIRPα v1 with a small beta-gal fragment (ED) fused to its C-terminal, expressed in K562 … (human, UniProt P78324 31-504); assay: cell-based or functional assay
[2] = molecular target: T2, human SIRPβ ECD recombinant protein (6×His tagged) (human, UniProt O00241 30-371); assay: ELISA, recombinant human SIRPβ ECD
T2 construct: extracellular domain; Bought from Sino Biological; also called hSIRPβ ECD; not shown: 6×His tag
T2 sequence (O00241 30-371): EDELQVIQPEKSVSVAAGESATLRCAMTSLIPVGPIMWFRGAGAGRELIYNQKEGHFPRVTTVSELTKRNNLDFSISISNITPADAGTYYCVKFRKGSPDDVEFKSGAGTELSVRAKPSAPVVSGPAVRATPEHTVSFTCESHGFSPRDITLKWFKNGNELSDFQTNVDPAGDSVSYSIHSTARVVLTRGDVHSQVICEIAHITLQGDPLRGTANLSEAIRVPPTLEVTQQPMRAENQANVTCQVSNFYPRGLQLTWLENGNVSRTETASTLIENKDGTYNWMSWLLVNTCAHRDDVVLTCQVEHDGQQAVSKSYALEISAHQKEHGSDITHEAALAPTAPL
Text: (§1) Binding activity of the purified chimeric antibodies against SIRPβ and SIRPBI was detected by ELISA assay using recombinant proteins of human SIRPβ ECD (FIGS. 3A and 3B), human SIRPBI ECD (FIGS. 3D and 3E) and FACS assay using CHOK 1 cells stably expressing human SIRPB (FIG. 3C).

[3] = molecular target: T3, human SIRPα v1 ECD recombinant protein (tag not given) (human, UniProt P78324 31-373); assay: competitive ELISA, coated human SIRPα v1 ECD, blocked ligand mFc tagged human CD47 ECD
T3 construct: extracellular domain; also called biotin labeled soluble human SIRPα v1 ECD recombinant protein; ELISA microplate coated human SIRPα v1 ECD
T3 sequence (P78324 31-373): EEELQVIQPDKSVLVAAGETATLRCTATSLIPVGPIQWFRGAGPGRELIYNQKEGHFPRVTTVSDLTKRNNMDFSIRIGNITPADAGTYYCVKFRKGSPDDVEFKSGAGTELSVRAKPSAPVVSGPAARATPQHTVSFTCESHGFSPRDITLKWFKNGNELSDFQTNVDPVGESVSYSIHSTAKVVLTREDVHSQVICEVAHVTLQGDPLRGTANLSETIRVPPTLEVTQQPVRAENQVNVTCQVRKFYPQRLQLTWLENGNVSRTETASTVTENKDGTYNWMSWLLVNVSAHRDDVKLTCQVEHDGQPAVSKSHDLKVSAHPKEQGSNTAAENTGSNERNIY
Method: (§2) Competitive ELISA assay was used to determine whether the purified chimeric antibodies can block CD47 and SIRPα interaction. Briefly, antibody and mFc tagged human CD47 ECD recombinant protein were co-incubated with ELISA microplate coated human SIRPα v1 ECD (FIGS. 6A and 6B) or human SIRPα v2 ECD (FIGS. 7A and 7B) recombinant protein. After washing, HRP labeled anti-mouse Fc 2nd antibody (Sigma) was added and incubated at 37° C. for 1 hour. Then, 100 μl/well of TMB solution (Biotechnology) was added. After incubation for 15 minutes at room temperature, the reaction was stopped by the addition of 50 μl of 1N HCl. OD 450 nm was read. Blocking ratio was determined by blockade of human CD47 ECD recombinant protein binding to ELISA microplate coated human SIRPα ECD recombinant protein. Other than 005, all antibodies as tested can block interaction between human CD47 and different human SIRPα variants.

[4] = molecular target: T4, human SIRPβL ECD recombinant protein (6×His tagged) (human, UniProt Q5TFQ8 30-371); assay: ELISA, hSIRPβI ECD
T4 construct: given variously as SIRPBL, SIRPBI and SIRPβI; Bought from Biointron; also called human SIRPBL ECD; human SIRPBI ECD
T4 sequence (Q5TFQ8 30-371 limits assumed): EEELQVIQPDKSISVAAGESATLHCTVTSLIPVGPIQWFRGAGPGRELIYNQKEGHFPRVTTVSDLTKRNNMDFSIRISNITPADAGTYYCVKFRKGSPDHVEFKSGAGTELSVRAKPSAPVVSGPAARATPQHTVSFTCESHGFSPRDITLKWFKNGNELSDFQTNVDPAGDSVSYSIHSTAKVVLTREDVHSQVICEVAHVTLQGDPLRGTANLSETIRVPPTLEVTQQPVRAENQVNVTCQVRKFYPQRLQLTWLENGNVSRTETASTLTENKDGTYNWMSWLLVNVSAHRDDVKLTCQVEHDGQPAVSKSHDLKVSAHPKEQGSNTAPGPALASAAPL
Text: as §1

[5] = molecular target: T5, mFc tagged human SIRPα v1 ECD recombinant protein (human, UniProt P78324 31-373); assay: competitive ELISA binning, mFc-SIRPα v1 ECD; competitor 042c
T5 construct: extracellular domain; Bought from Biointron; not shown: mouse IgG Fc (mFc) tag
T5 sequence (P78324 31-373): as the sequence (P78324 31-373) above
Method: Competitive ELISA assay was used for epitope binning of purified chimeric antibodies. Briefly excessive competitor antibody and mFc tagged human SIRPα v1 ECD recombinant protein were co-incubated with ELISA microplate coated antibody. After washing, HRP labeled anti-mouse Fc 2nd antibody (Sigma) was added and incubated at 37° C. for 1 hour. Then, 100 μl/well of TMB solution (Biotechnology) was added. After incubation for 15 minutes at room temperature, the reaction was stopped by the addition of 50 μl of 1N HCl. OD 450 nm was read. Competition ratio was calculated. The antibodies that can compete each other for binding to SIRPα may have related binding epitopes.

[6] = molecular target: T3, human SIRPα v1 ECD recombinant protein …; assay: competitive ELISA, mFc-CD47 ECD on coated SIRPα v1 ECD
Method: as §2
(§3) The humanized antibodies were tested for the ability to block CD47 and SIRPα interaction with competitive ELISA assay (refer to methods described in Example 4.2.3.).

[7] = molecular target: Human SIRPα v1 (antigen of the Octet and Biacore affinity measurements) (human, UniProt P78324 31-370, limits assumed); assay: SPR (Biacore), 1:1 binding model
Human SIRPα v1 (antigen of the Octet and Biacore affinity measurements), sequence (P78324 31-370 limits assumed): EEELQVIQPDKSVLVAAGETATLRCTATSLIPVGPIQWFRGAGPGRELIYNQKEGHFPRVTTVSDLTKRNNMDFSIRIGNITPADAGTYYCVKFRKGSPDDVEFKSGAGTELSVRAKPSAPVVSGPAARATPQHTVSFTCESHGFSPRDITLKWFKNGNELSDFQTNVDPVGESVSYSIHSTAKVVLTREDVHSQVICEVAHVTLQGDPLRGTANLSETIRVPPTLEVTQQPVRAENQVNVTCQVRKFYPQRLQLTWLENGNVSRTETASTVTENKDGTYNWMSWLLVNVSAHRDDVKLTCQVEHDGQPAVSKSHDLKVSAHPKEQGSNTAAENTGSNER
Method: The humanized antibodies were characterized for binding affinity against human SIRPα v1, human SIRPα v2 using Surface Plasmon Resonance technology (Biacore system). The association and dissociation curves were fit with 1:1 binding model, and the Ka/Kd/KD values for each antibody were calculated.

[8] = molecular target: T6, human SIRPα v2 ECD recombinant protein (tag not given) (human); assay: competitive ELISA, mFc-CD47 ECD on coated SIRPα v2 ECD
T6 construct: extracellular domain; also called ELISA microplate coated human SIRPα v2 ECD
Method: as §2

[9] = molecular target: T7, human SIRPβ stably expressed on CHOK1 cells (human, UniProt O00241 30-398); assay: FACS, CHOK1-hSIRPβ cells
T7 construct: whole, on cells; also called CHOK1-human SIRPB; CHOK1-hSIRPβ
T7 sequence (O00241 30-398): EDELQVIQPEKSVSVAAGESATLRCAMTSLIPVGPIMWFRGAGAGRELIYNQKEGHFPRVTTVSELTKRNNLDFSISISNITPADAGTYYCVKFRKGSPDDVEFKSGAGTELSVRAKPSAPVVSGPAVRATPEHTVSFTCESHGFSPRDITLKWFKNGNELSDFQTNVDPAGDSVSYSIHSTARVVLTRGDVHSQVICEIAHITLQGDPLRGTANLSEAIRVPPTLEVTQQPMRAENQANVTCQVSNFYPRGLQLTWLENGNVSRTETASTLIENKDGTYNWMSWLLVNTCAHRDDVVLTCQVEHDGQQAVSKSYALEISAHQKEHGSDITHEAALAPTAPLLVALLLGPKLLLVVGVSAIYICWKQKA
Text: as §1

[10] = molecular target: T2, human SIRPβ ECD recombinant protein …; assay: ELISA, hSIRPβ ECD
Text: as §1

[11] = molecular target: T4, human SIRPβL ECD recombinant protein …; assay: ELISA, recombinant human SIRPβL (SIRPβI) ECD
Text: as §1

[12] = molecular target: T3, human SIRPα v1 ECD recombinant protein …; assay: competitive ELISA, mFc-CD47 ECD on coated SIRPα v1 ECD; remark: listed apart in the source
Method: as §2

[13] = molecular target: T1, full length human SIRPα v1 with a small …; assay: cell-based or functional assay; remark: listed apart in the source
[14] = molecular target: T6, human SIRPα v2 ECD recombinant protein …; assay: competitive ELISA, mFc-CD47 ECD on coated SIRPα v2 ECD; remark: listed apart in the source
Method: as §2, §3

[15] = molecular target: T8, human SIRPγ stably expressed on 293F cells (human, UniProt Q9P1W8 29-387); assay: FACS, 293F-hSIRPγ cells
T8 construct: whole, on cells
T8 sequence (Q9P1W8 29-387): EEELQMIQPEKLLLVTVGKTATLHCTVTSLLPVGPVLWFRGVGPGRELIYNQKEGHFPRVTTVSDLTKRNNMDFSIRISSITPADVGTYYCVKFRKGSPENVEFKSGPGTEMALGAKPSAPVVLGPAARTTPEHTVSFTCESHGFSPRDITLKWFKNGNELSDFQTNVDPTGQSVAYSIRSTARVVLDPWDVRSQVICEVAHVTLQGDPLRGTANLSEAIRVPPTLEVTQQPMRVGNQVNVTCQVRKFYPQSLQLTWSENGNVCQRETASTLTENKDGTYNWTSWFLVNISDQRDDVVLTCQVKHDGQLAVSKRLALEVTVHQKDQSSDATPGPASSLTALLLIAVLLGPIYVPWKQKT
Text: All the humanized antibodies as tested were confirmed to retain the similar activity as the parental antibody of 025c to bind to SIRP family members.

T1 sequence (P78324 31-504): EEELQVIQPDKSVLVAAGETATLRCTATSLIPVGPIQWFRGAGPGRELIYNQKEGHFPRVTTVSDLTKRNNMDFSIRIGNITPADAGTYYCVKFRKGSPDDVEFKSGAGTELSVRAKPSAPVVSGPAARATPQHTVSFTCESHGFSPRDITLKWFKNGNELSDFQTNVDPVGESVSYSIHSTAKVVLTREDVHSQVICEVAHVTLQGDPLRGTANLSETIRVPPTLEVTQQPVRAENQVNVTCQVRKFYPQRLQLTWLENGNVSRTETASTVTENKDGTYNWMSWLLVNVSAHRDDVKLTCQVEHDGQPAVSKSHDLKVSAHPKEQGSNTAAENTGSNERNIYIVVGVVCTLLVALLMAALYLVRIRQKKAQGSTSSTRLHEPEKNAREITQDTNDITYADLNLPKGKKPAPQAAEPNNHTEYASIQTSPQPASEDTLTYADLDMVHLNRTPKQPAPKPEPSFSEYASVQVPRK

B1: 025c (antibody, V domains shown)
VH: EVQLQQSGAELVKPGASVKLSCTASGFNIKDYYMHWVKQRTEQGLEWIGRIDPEDGETKYAPKFQGKATITADTSSNTAYLQLSSLTSEDTAVYYCDRGLAYWGQGTLVTVSA
VL: QIVLTQSPAIMSASPGEKVTLTCSASSSVSSSYLYWYQQKPGSSPKLWIYSTSNLASGVPARFSGSGSGTSYSLTISSMEAEDAASYFCHQWSSYPYTFGGGTKLEIK
notes: also called chimeric antibody 025c; parental antibody of 025c
SHP-1 recruitment blocking, IC50 [1]: 0.08 nM
SHP-1 recruitment blocking, TOP blocking (%) [1]: 87%
EC50 (read off the curve) [2]: ~0.04 nM
IC50 (read off the curve) [3]: 2 to 3 nM
EC50 [4]: 0.33 nM
TOP OD450 [4]: 2.8 OD450
% Competition [5]: 19.1%
IC50 [6]: 2.03 nM
TOP blocking (%) [6]: 97.5%
Kd [7]: 1.53 nM
koff [7]: 0.000924 s⁻¹
kon [7]: 602000 M⁻¹ s⁻¹
IC50 [8]: 2.21 nM
TOP blocking (%) [8]: 96.5%
EC50 [9]: 0.38 nM
TOP MFI [9]: 10900 MFI
EC50 [10]: 0.04 nM
TOP OD450 [10]: 3.1 OD450
EC50 (read off the curve) [11]: ~0.4 nM
IC50 [12]: 2.12 nM
TOP blocking (%) [12]: 96.5%
SHP-1 recruitment blocking, IC50 [13]: 0.28 nM
SHP-1 recruitment blocking, TOP blocking (%) [13]: 84.5%
IC50 [14]: 1.86 nM
TOP blocking (%) [14]: 98.6%
EC50 [15]: 0.2 nM
TOP MFI [15]: 22800 MFI
